Assay [1] addresses T1, C1s (human, UniProt P09871 16-688, limits assumed).
T1 construct: Species read from 'Recombinant human MASP-2 or C1r, C1s, CFD, MASP-1 and MASP-3'
T1 sequence (looked up): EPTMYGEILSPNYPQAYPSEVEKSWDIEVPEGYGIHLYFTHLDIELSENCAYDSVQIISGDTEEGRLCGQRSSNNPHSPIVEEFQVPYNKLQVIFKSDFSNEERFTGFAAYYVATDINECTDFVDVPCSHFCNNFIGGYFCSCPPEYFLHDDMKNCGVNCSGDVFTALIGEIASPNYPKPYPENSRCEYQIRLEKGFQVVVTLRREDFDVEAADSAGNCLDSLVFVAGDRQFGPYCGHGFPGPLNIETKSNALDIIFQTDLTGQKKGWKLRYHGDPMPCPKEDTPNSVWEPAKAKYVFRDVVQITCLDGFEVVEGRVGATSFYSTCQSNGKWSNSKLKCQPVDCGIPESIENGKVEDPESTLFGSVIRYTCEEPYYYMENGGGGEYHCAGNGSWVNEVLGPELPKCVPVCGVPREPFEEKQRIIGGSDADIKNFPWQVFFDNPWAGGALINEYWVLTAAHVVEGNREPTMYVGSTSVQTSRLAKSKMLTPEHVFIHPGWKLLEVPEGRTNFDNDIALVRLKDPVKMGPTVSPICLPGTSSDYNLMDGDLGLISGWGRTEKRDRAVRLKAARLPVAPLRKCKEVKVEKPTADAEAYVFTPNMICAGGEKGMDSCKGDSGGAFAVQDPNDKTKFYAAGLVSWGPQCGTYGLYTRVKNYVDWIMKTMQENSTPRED
The assay can be described thus: solid phase ELISA, immobilized protease, mean apparent KD of two lots. The source says: (§1) The apparent dissociation constant (KD) was estimated by nonlinear regression using a 4-parameter logistic model.
(§2) Fold selectivity calculated as KD(related serine protease)/mean KD(MASP-2).
For orientation: ELISA stands for enzyme-linked immunosorbent assay.

Assay [2] addresses T1, C1s. The experiment in a line: solid phase ELISA, immobilized protease, apparent KD.
Excerpt: as §1

Assay [3] has as its target T2, MASP-1 (human, UniProt P48740 20-699, limits assumed).
T2 construct: Species read from 'Recombinant human MASP-2 or C1r, C1s, CFD, MASP-1 and MASP-3'
T2 sequence (looked up): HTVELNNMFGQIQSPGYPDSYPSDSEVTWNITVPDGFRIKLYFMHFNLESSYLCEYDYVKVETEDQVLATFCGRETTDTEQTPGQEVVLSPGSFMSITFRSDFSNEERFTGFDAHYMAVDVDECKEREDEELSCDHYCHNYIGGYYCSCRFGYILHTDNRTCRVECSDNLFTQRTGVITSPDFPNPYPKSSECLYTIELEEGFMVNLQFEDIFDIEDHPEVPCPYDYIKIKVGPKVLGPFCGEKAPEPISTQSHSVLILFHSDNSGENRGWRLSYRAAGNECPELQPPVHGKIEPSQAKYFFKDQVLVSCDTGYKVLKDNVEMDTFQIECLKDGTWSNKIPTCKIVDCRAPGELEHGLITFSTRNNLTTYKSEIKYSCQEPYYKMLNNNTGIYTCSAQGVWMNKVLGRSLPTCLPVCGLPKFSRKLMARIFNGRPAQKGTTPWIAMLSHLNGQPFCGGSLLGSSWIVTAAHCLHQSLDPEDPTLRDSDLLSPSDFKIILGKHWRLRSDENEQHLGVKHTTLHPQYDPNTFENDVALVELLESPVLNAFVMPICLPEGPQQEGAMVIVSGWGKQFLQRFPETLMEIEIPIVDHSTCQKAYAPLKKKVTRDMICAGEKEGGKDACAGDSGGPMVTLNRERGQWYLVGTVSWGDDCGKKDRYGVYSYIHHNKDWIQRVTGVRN
The assay is described as above.
Excerpt: as §1

In assay [4] the target is T3, MASP-3 (human, UniProt P48740-2 20-728, limits assumed).
T3 construct: Species read from 'Recombinant human MASP-2 or C1r, C1s, CFD, MASP-1 and MASP-3'
T3 sequence (looked up): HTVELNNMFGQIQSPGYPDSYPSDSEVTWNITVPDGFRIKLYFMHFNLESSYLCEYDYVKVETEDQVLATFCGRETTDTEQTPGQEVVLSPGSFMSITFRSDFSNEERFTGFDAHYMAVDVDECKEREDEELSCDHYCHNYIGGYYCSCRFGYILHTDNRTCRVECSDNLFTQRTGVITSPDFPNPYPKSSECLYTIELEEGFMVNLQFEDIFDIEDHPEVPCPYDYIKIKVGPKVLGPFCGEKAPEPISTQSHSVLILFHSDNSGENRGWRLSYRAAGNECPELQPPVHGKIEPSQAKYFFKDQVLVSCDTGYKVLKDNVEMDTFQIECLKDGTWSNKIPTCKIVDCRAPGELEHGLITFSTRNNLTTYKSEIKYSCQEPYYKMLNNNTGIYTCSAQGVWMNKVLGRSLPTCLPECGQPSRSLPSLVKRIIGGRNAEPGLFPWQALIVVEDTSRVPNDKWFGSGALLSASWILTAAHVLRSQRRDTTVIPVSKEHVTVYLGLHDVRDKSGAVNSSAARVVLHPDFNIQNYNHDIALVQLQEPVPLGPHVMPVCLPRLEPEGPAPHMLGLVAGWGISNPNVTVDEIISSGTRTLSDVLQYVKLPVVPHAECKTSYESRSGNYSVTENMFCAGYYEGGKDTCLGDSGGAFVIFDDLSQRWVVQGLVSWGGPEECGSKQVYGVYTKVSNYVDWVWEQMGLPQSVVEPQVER
Described as above.
Excerpt: as §1

For assay [5], the target named is T4, CFD (human, UniProt P00746 26-253, limits assumed).
T4 construct: Species read from 'Recombinant human MASP-2 or C1r, C1s, CFD, MASP-1 and MASP-3'; also called factor D; complement factor D
T4 sequence (P00746 26-253 limits assumed): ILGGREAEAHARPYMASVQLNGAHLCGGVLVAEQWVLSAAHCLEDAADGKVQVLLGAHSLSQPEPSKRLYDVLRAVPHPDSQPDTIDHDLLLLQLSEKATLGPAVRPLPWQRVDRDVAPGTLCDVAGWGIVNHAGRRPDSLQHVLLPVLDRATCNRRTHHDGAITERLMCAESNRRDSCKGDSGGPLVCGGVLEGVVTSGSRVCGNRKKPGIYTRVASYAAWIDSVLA
Described as above.
Excerpt: as §1

Assay [6] addresses Recombinant human MASP-2 (specificity ELISA, Example 14) (human, UniProt O00187 16-686, limits assumed). The assay can be described thus: solid phase ELISA, immobilized protease, apparent KD by 4-parameter logistic fit.
Excerpt: as §1, §2

Several values for one entry are separate records, joined by “and”; a condition that tells them apart may be missing. Identical values can stand only once.

Chain of Recombinant human MASP-2 (specificity ELISA, Example 14) (O00187 16-686 limits assumed): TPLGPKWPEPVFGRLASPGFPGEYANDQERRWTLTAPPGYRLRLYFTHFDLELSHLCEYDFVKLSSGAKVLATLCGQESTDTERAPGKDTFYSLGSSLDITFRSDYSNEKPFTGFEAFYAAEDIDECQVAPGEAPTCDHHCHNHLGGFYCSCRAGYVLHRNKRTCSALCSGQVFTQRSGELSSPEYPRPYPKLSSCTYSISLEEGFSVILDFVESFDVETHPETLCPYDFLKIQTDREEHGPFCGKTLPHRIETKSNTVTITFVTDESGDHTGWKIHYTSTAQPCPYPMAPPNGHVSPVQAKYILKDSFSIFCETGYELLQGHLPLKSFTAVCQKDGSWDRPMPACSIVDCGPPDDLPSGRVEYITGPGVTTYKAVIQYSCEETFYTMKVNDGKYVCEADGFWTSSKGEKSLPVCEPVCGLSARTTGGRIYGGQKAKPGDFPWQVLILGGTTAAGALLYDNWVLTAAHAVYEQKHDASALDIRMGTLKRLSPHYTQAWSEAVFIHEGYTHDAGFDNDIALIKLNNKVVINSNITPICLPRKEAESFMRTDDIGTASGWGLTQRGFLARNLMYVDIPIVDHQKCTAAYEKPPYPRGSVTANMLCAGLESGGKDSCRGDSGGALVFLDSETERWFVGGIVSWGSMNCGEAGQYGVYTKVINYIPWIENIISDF

B1: mAb OMS858 (humanized anti-MASP-2 antibody) (antibody, V domains shown)
VH: QVQLVQSGAEVKKPGASVKVSCKASGYTFTNHHMHWLRQAPGQGLEWIGDIDASDSETHYIEKFKDRATLTIDKSSSTAYMELSSLRSEDTAVYYCARGDITTTLRYFDVWGQGTLVTVSS
VL: DIQLTQSPSSLSASVGDRVTITCSASSSVRYMYWYQQKPGKAPKLLIYDTSNLASGVPSRFSGSGSGTDNTLTISSLQPEDFATYYCQQWSSYPLTFGQGTKVEIKR
notes: also called antibody OMS858; biotinylated OMS858
In the case of B1, the Kd was greater than 100 µg/mL in assay [1]; greater than 100 µg/mL in assay [2]; greater than 100 µg/mL in assay [3]; greater than 100 µg/mL in assay [4]; greater than 100 µg/mL in assay [5]; 0.042 µg/mL and 0.051 µg/mL in assay [6].
